Measurements published in paper PMC7054835, “MyD88 Death-Domain Oligomerization Determines Myddosome Architecture: Implications for Toll-like Receptor Signaling” (Structure(London, England:1993), 2020).

Molecular target: the molecule itself
Experiment: AUC; sedimentation velocity (30,000 rev/min) and sedimentation equilibrium (3200 and 4200 rev/min, 250 and 280 nm) of hMyD88^DD alone, 35 uM, 293 K, 20 mM Tris, 20 mM NaCl, pH 8.0, 5% glycerol

B1: human MyD88 death domain construct (N-terminal death and intermediate domains of hMyD88, 1-151) (domain or fragment, UniProt Q99836 1-151, looked up)
chain: MAAGGPGAGSAAPVSSTSSLPLAALNMRVRRRLSLFLNVRTQVAADWTALAEEMDFEYLEIRQLETQADPTGRLLDAWQGRPGASVGRLLELLTKLGRDDVLLELGPSIEEDCQKYILKQQQEEAEKPLQVAAVDSSVPRTAELAGITTLD
notes: Myeloid differentiation primary response 88 (MyD88), human, residues 1-151: death domain plus a 30-residue segment of the intermediate domain; printed monomer mass 17.5 kDa; Forms open-ended helical filaments of several hundred subunits at 35 uM and above; The model in the map holds 103 residues per subunit and ends at Q121; also called hMyD88^DD; MyD88^DD; source: E. coli BL21 DE3 Rosetta 2, …
B1: binds.
